The values below come from patent publication US20050049402A1 (Amgen, published 2005).

The labels stand for the following.
B2: H/M BglI chimeric TNFα (human 1-36, murine 37-157) (ligand)
chain: VRSSSRTPSDKPVAHVVANPQAEGQLQWLNRRANALLANGMDLKDNQLVVPADGLYLVYSQVLFKGQGCPDYVLLTHTVSRFAISYQEKVNLLSAVKSPCPKDTPEGAELKPWYEPIYLGGVFQLEKGDQLSAEVNLPKYLDFAESGQVYFGVIAL
notes: Murine range is printed as 37-157 in human-aligned numbering; also called H/MBgl1; Hu/MBgl1
B3: H/M PvuII chimeric TNFα (human 1-125, murine 126-157) (ligand)
chain: VRSSSRTPSDKPVAHVVANPQAEGQLQWLNRRANALLANGVELRDNQLVVPSEGLYLIYSQVLFKGQGCPSTHVLLTHTISRIAVSYQTKVNLLSAIKSPCQRETPEGAEAKPWYEPIYLGGVFQLEKGDQLSAEVNLPKYLDFAESGQVYFGVIAL
notes: also called Hu/M PVu11
B4: H/M HincII chimeric TNFα (human 1-91, murine 92-157) (ligand)
chain: VRSSSRTPSDKPVAHVVANPQAEGQLQWLNRRANALLANGVELRDNQLVVPSEGLYLIYSQVLFKGQGCPSTHVLLTHTISRIAVSYQTKVNLLSAVKSPCPKDTPEGAELKPWYEPIYLGGVFQLEKGDQLSAEVNLPKYLDFAESGQVYFGVIAL
notes: Murine range printed 92-157 (human-aligned); also called Hu/M Hin C l1

The target in experiment [1] is T1, human TNFα (Tumor Necrosis Factor-alpha), soluble (human, UniProt P01375 77-233). In words: cell-based or functional assay.
The target of another experiment is T2, p55-hFc (R&D) (UniProt P19438 30-211, limits assumed).
T2 construct: Bought reagent; also called TNFα receptor p55-hFc
T2 sequence (looked up): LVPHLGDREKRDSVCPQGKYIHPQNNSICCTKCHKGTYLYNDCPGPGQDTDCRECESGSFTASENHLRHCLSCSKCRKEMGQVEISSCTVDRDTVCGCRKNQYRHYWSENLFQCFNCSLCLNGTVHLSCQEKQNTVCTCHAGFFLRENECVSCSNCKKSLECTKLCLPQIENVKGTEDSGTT
In words: receptor-Fc binding to TNFα constructs.

In experiment [2] the target is T3, p75-hFc construct (R&D Systems) (UniProt P20333 23-257).
T3 construct: Described as similar to etanercept (Enbrel); also called p75s-hFc; Etanercept surrogate
T3 sequence (looked up): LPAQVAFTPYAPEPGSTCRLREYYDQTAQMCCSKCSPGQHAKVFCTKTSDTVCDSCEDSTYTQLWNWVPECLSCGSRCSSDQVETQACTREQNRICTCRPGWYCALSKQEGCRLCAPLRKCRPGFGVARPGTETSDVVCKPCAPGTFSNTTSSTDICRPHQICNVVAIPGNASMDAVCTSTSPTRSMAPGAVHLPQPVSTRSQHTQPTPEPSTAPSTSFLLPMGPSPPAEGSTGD
In words: receptor-Fc binding to TNFα constructs.

Experiment [3] deals with T1, human TNFα (Tumor Necrosis …). In words: KinExA, TNFα counted as one trimer. As to the method:
(§1) The kinetic measurements of the anti-TNFα antibodies were evaluated using KinExA® and BIACORE® technologies. The KinExA® method involves solution-based determination of formal affinity measurements at equilibrium. To measure the binding kinetics of each human anti-TNFα antibody, two experiments in replicates of three were performed. In both experiments a known concentration of antigen was titrated and a different antibody concentration was added to each antigen titration and allowed to reach binding equilibrium. […] The results were analyzed by dual curve analysis. […] In addition, to negate the possibility of avidity effects, Fab fragments were generated by papain cleavage and the kinetic analysis was repeated (see Table 24).
For orientation: Kinetic exclusion samples the free partner from a solution-phase mixture.

Experiment [4] shares this target. In words: KinExA, TNFα counted as three monomers. The procedure: as §1
In the next experiment the target is human TNFα R131Q mutant (human, UniProt P01375 77-233). In words: ELISA on chimeric/mutant TNFα. The source says: (§2) In order to define the binding site for different antibodies, a number of residues of hTNFα were mutated using site directed mutagenesis. A panel of antibodies was screened for binding by an ELISA assay. […] Histidine at position 73 was deleted, an example is illustrated in Table 19.
For orientation: In an ELISA, binding on a coated surface is turned into a signal by an enzyme label.

The target in experiment [5] is B2. In words: ELISA on chimeric/mutant TNFα.
Source text: as §2

Experiment [6] concerns the target B3. In words: ELISA on chimeric/mutant TNFα.
Source text: as §2

Experiment [7] addresses B4. In words: ELISA on chimeric/mutant TNFα.
Source text: as §2

A further experiment deals with human TNFα R31Q mutant (human, UniProt P01375 77-233). In words: ELISA on chimeric/mutant TNFα.
Source text: as §2

The target in experiment [8] is T1, human TNFα (Tumor Necrosis …). In words: ELISA on chimeric/mutant TNFα.
Source text: as §2

For experiment [9], the target named is T4, human TNFα with histidine 73 deleted (human, UniProt P01375 77-233).
T4 construct: Deletion of His73 written as two joined ranges; also called His 73del
In words: ELISA on chimeric/mutant TNFα.
Source text: as §2

Experiment [10] deals with human TNFα R31Q, Q27E mutant (human, UniProt P01375 77-233). In words: ELISA on chimeric/mutant TNFα.
Source text: as §2

T4 sequence (P01375 other isoform, or with tags, fused parts or gaps): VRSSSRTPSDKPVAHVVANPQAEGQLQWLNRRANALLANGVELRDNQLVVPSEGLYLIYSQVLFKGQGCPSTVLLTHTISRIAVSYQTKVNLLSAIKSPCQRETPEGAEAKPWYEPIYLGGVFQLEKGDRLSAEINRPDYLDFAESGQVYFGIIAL

B1: 3.2 g1 (antibody, human IgG1, V domains shown)
VH: EVQLVQSGAEVKKPGESLKISCKTSEYSFTSYWIGWVRQMPGKGLEWMGIIYLGDSDTRYSPSFQGQVTISADKSISTAYLQWSSLKASDTAMYYCARSNWGLDYWGQGTLVTVSS
VL: QSVLTQPPSVSGAPGQRVTISCTGSSSNIGAGYDVHWYQQFPGTAPKLLIQGNSNRPSGVPDRFSGSKSGTSASLAITGLQAEDEADYYCQSYDSSLSGSVFGGGTKLTVL
In the case of B1, in [1], the “IC50 1 hr Pre-incubation, TNF induced apoptosis in MCF-7 cells” value amounted to 93.8 pM and the “IC50 18 hr Pre-incubation, TNF induced apoptosis in MCF-7 cells” value was 38.6 pM.
With B2, the binding result (with p55-hFc (R&D); in [2]) was “binds” throughout.
For B3, the binding result (in the experiment with p55-hFc (R&D); in experiment [2]) was “binds” each time.
With B4, the binding result (with p55-hFc (R&D); in experiment [2]) was “binds” throughout.

B5: 299v1 (antibody, human IgG1, V domains shown)
VH: QVQLVESGGGVVQPGRSLRLSCAASGFTFSSYDMHWVRQAPGKGLEWVAVIWSDGSIKYYADSVKGRFTISRDNSKNTLYLQMNSLRAEDTAVYYCAREVESAMGGFYYNGMDVWGQGATVTVSS
VL: DIQMTQSPSSLSASVGDRVTITCRASQGIRIDLGWYQQKPGKAPKRLIYAASTLQSGVPSRFSGSGSGTEFIFTISSLQPEDFASYYCLQHKSYPLTFGGGTKVEIK
notes: XENOMAX derived, recombinant human IgG1 kappa; also called SC299V1
The Kd is the equilibrium constant for the complex coming apart. A lower Kd goes with a tighter complex. On to B5, for which, in experiment [3], the equilibrium dissociation constant (Kd) worked out at 0.63 pM, the “Kd (M) High” value stood at 9.2e-13 M and the “Kd (M) Low” value came to 4.3e-13 M. For the same molecule, in [4], the dissociation constant Kd amounted to 1.89 pM, the “Kd (M) High” value came to 2.76e-12 M and the “Kd (M) Low” value is 1.29e-12 M.

B6: 291 (antibody, human IgG1, V domains shown)
VH: QVQLVESGGSVVQPGRSLRLSCAASGFTFSNYGIHWVRQAPGKGLEWVAVIWSDGSNKYYADSVKGRFTISRDNSKNTLYLQMNSLRAEDTAVYYCARELPNSGSYSGYYYYYGMDVWGQGTTVTVSS
VL: DIQMTQSPSSLSASVGDRVTITCRASQGIRNDLGWYQQKPGKAPKRLIYAASSLQSGVPSRFSGSGSGTEFTLTISSLQPEDFATYYCLQHCCYPLTFGGGTKVEIK
notes: XENOMAX derived, recombinant human IgG1 kappa; also called 291 Ab; SC291
For B6, the binding result in the experiment with human TNFα R131Q mutant is given as “binds”; in [5], “binds”; in experiment [6], “binds”; in experiment [7], “binds”; with human TNFα R31Q mutant, “no binding”.

B7: 313 (antibody, human IgG1, V domains shown)
VH: QVQLVESGGGVVQPGRSLRLSCAASGFTFSNHDIHWVRQAPGKGLEWVAVIWSDGSNKYYADSVKGRFTISRDNSKNTLYLQMNSLRAEDTAVYYCAREKMATIKGYYYYGMDVWGQGTTVTVSS
VL: DIQMTQSPSSLSASVGDRVTITCRASQGIRNDLGWYQQKPGKAPKRLIYAASSLESGVPSRFSGSGSGPEFTLTISSLQPEDFATYYCLQHNSYPLTFGGGTKVEIQ
notes: Recombinant human IgG1 kappa; also called 313 Ab; SC313
Regarding B7, the binding result (in [8]; with human TNFα R131Q mutant; in experiment [9]; in experiment [5]; in [6]; in experiment [7]) was “binds” each time. Further, the binding result in the experiment with human TNFα R31Q mutant was “no binding”.

B8: 282 (antibody, human IgG1, V domains shown)
VH: QVQLVESGGGVVQPGRSLRLSCAASGFTVSSYGMHWVRQAPGKGLEWVAVIWSNGSNKYYADSVKGRFTISRDNSKNTLYLQMNSLRAEDTAVYYCARDNGVYVGYAYYYGMDVWGQGTTVTVSS
VL: DIQMTQSPSSLSASVGDRVTITCRASQGIRNDLGWYQQKPGKAPKRLIYAASSLHSGVPSRFSGSGSGTEFTLTISSLQPEDFATYYCLQHNSYPWTFGQGTKVEIK
notes: XENOMAX derived, recombinant human IgG1 kappa; also called 282 Ab; SC282
In the case of B8, the binding result (in experiment [8]; in experiment [10]; with human TNFα R131Q mutant; in [9]; with human TNFα R31Q mutant) was “binds” in each case.

B9: 4.17 g1 (antibody, human IgG1, V domains shown)
VH: QVQLVESGGGVVQPGRSLRLSCTTSGFTFSNYGMHWVRQAPGKGLEWVAVIWYDGSIKYYVDSVKGRFTISRDNSKNTLYLQMNSLRAEDTAVYYCAREKDCGGDCYSHYGMDVWGQGTTVTVSS
VL: DIQMTQSPSSLSASVGDRVTITCRASQGIRNDLGWYQQKPGKAPKRLIYAASSLQSGVPSRFSGSGSGTEFTLTISSLQPEDFATYYCLQHMSLPLTFGGGTKVEIK
For the molecule B9, in experiment [1], the “IC50 1 hr Pre-incubation, TNF induced apoptosis in MCF-7 cells” value stood at 256 pM and the “IC50 18 hr Pre-incubation, TNF induced apoptosis in MCF-7 cells” value amounted to 40.4 pM.

B10: 250 (antibody, human IgG1, V domains shown)
VH: EVQLVESGGGLIQPGGSLRLSCAASGFTVSSNYMSWVRQAPGKGLEWVSVIYSGDRTYYADSVKGRFTISRDNSKNTLYLQMNSLRAEDTAVYYCARGEGGFDYWGQGTLVTVSS
VL: EIVMTQSPATLSVSPGERATLSCRASQSVTSNLAWYQQKPGQAPRLLIHGASIRATGLPARFSGSGSGTEFTLTISSLQSEDFAVYYCQQYNYWWTFGQGTKVEIK
notes: XENOMAX derived, recombinant human IgG1 kappa; also called 250Ab; SC250
As for B10, the binding result (in experiment [8]; in experiment [10]; with human TNFα R131Q mutant; in experiment [9]; with human TNFα R31Q mutant) was “binds” in each case.

B11: 269 (antibody, human IgG1, V domains shown)
VH: EVQLVESGGGLIQPGGSLRLSCAASEFTVSRNYMSWVRQAPGKGLEWVSVIYSGDRTYYADSVKGRFTISRDNSKNTLYLQMNSLRAEDTAVYYCARGEGGFDYWGQGTLVTVSS
VL: EIVMTQSPATLSVSPGERATLSCRASQSVSSNLAWYQQKPGQAPRLLIHGASIRATGLPARFSGSGSGTEFTLTISSLQSEDFAVYYCQQYNYWWTFGQGTKVEIK
notes: XENOMAX derived, recombinant human IgG1 kappa; also called 269Ab; SC269
For B11, the binding result (in experiment [8]; in experiment [10]; with human TNFα R131Q mutant; in experiment [9]; with human TNFα R31Q mutant) was “binds” each time.
